Test results taken from article PMC4031514, “Lysine 27 Ubiquitination of the Mitochondrial Transport Protein Miro Is Dependent on Serine 65 of the Parkin Ubiquitin Ligase*” (The Journal of Biological Chemistry, 2014).

Target: T1, GFP-TRAK1 (mouse, UniProt Q6PD31 1-939)
T1 construct: TRAK1, mouse; also called kinesin adaptor TRAK1
T1 sequence (looked up): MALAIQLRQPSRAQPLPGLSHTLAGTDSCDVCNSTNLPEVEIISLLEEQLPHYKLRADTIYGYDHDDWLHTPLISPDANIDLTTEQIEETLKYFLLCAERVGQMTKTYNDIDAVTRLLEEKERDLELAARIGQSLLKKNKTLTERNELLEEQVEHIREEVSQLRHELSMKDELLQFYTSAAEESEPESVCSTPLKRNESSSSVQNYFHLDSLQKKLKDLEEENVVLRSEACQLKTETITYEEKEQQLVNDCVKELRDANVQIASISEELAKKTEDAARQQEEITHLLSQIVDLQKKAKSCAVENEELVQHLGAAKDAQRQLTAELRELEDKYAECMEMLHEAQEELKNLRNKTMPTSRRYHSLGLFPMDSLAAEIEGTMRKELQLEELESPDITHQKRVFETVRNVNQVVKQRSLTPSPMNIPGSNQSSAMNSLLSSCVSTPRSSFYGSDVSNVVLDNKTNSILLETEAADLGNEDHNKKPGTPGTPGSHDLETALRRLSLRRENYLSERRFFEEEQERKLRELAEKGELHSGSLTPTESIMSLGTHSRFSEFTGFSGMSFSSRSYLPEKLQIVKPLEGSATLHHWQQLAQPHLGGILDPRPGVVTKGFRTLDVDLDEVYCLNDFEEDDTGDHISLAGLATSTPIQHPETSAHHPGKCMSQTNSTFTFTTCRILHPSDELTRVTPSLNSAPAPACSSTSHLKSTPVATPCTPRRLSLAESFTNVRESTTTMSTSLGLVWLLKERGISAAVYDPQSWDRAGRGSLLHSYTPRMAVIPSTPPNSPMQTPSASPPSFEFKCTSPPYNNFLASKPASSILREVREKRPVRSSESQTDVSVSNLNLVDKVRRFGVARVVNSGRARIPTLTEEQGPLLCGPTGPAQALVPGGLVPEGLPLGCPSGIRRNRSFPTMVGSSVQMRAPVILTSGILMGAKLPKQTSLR
Experiment: co-IP; coimmunopurification of mycMiro1 and GFP-TRAK1 from transfected cells, untreated or treated with 10 uM FCCP, 1 h; GFP-TRAP beads per the methods; lysis in 50 mM Tris pH 7.4, 150 mM NaCl, 1 mM EDTA, 0.5% Triton X-100; western blot, densitometry
Settings: partners not purified

co-IP with FCCP relative to untreated control (1): 0.94 fold of control
B1: Myc-tagged Miro1 (natural protein, UniProt Q8IXI2 1-618, looked up)
chain: MKKDVRILLVGEPRVGKTSLIMSLVSEEFPEEVPPRAEEITIPADVTPERVPTHIVDYSEAEQSDEQLHQEISQANVICIVYAVNNKHSIDKVTSRWIPLINERTDKDSRLPLILVGNKSDLVEYSSMETILPIMNQYTEIETCVECSAKNLKNISELFYYAQKAVLHPTGPLYCPEEKEMKPACIKALTRIFKISDQDNDGTLNDAELNFFQRICFNTPLAPQALEDVKNVVRKHISDGVADSGLTLKGFLFLHTLFIQRGRHETTWTVLRRFGYDDDLDLTPEYLFPLLKIPPDCTTELNHHAYLFLQSTFDKHDLDRDCALSPDELKDLFKVFPYIPWGPDVNNTVCTNERGWITYQGFLSQWTLTTYLDVQRCLEYLGYLGYSILTEQESQASAVTVTRDKKIDLQKKQTQRNVFRCNVIGVKNCGKSGVLQALLGRNLMRQKKIREDHKSYYAINTVYVYGQEKYLLLHDISESEFLTEAEIICDVVCLVYDVSNPKSFEYCARIFKQHFMDSRIPCLIVAAKSDLHEVKQEYSISPTDFCRKHKMPPPQAFTCNTADAPSKDIFVKLTTMAMYPHVTQADLKSSTFWLRASFGATVFAVLGFAMYKALLKQR
notes: Miro1, outer mitochondrial membrane GTPase; also called mycMiro1
